Laboratory results taken from the domain aggregation screens of Martell et al. (2025).

Assay: soluble fraction after stress (log2 fold change); higher = more stays soluble; pooled small domains, quantitative proteomics
Details: stress: pH 4
Summary of the method: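 How much of each domain stays soluble after acid stress, expressed as a fold change, is used to gauge aggregation propensity. Pooled custom libraries of small domains underwent pH 4 stress before high-throughput quantitative proteomics. A higher log2 value means more of the domain stayed soluble.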

Sequence	soluble fraction (log2)
HMDGYTVYTNWGSDTNVARSDQQIQSQIPQLSGATIVGVWTKPIATGGTSYKIRYRTNSGAFTEIDVDQ	-0.0816
HMTDFDPDGREKLIKVQKALHFNNHQLADALRVGQATFSSYIYGRVAAGVPVRVVKAAEDLLKNSKATV	0.146
HMRKYKIKEELPDNIYKIIQDNPGIVQKDIYDILGREYQQNISSYIYSMDKNGVIKRDKHGNSYKLYL	-1.01
HMLGKNEAKEYKVAYGDIGKMPALIMGLVPLPKPPVVDERLRTLYVTATPEQHREIEAIMNRI	-0.306
HMPRVSIEKIKKVVELLKHNPDYTYSKIGNIVGIGRKTVSGINNGKLYTDLVEELGINEFPI	0.0348
HMPVRIYEISKKLGLENKEVLATAKSLGIAAAKVPSSSLDKITAEYLEEEILKSHPEVAARLK	≥ 0.43
HMNYNEKGEYTRTLTSGSETAVMTYRNFGETLDVALFKNGVQTDSLRLIKSEPGVLYRQSNGQFEKI	-0.0181
HMIMHLNQIIRNKRLAAGLTQEALAQKVGVTAPAVSKWEKGISYPDITLLPILARNLNTDVNTLLDFSA	0.0644
HMAKVDIPHEMVDQRIDEIVEEIKMNLESQNMSLDDYLKRMNQTEAQLRANYEATAAEQVRQGLV	-0.982
HMDPPYKDKNLHELLLKINNLNILKKDSVIILHRHKKQKEIFPSNFKIIEQKQYGISKIIFLTVL	0.217
HMNESPVLAVLTPTERKVASLVAEGLTNQAIAARMILAEGTVKNHVSTLLHKLQAPDRTALALTLYKAFQ	0.165
HMIAVLKQGVSKQQVENLITWFRSRGLDVHISEGKFQTIIGLIGDTSKVDIDLLNGLEIIESVKRI	-0.832
HMFDKVSVNNLAEAIGRLDGIYQDVLRLYYVHELPSKEIGKILNINHLTVNTRLKRAREKLFKMLKEE	-0.812
HMAPLATLEADGNGAVKLPNLAGHAIREVAAALGGANLALIPIGSGTSWKQNPAPGTILHKGDTVTVYF	-0.353
HMPMNISDIIKQAREELGMTQEDLAERLEVSRQAVSKWELGASVPSPENLRLLEELLGVELPAP	-0.635
HMKGEIEELLYEEVTKDNNTTFLRIYIKLNDEYNTLLNLGIIGIKTEEKVNELVNLGYKKVL	-2.54
HMLPDYLIELKKKADSGDAVSQNDIGNIYLYGLPRVNIYPDEKNIGIGIDYLYKAAWQDQVNAMTTI	-0.397
HMEVSLEDKMDYLTNYATTHKNFSFRNLLESSSGKIEVIVTFLAILELMKMGRINISQEHIFDDIIIESRI	-1.8
HMDKNLQYADTPKGKLREYIKNLPNGSTVNRQKLAEEFGIKKQSMGTVTEVFQEFPDKNFKFVNP	-0.157
HMSNVIYFNYNDYKFLFMGDAGVDKETDILEKYTLSNIDFLKVGHHGSDTSSNKGFIDSIQPKYSLIS	-1.42
HMSVETSDLLPLIEQVLSLNPDKVKEYQNGKKGLLGFFMGQIKQTAGVAIDVGTLKPLLEDALHKDL	-1.06
HMQSRYALLAGMLRARITEGDWVPGSAIPAETVLAKEHGVALGTMRQAIALLVSQGLLERQHGRGTFVRS	-0.0211
HMETSIQFIRLEIGHNHPWVNQTLKEIPTIPGTLIAAVLRGDEDQAIIPKGDTLLKEGDSVIIGAKEYQD	-1.61
HMYPEDMMSLMRRALRLINHLESNRKDRHNSRQLELTESKIRRLARYYKGRGLIETEWAYKRDQLRLLV	-0.184
HMPTMTDIPIKIIRSRRRTLAIEVREGGEVIVRAPLYSRKAEIDAFVKAHENWIITKYNLMITKQN	0.352

Sequence	soluble fraction (log2)
HMGDITIPDLQGMSFDQAREKLKALGLSIGKISYTSDTSKDDGVVISQGLQAGGKASKGATVDITINET	-0.177
HMLTKAEEQVMDYLWKLEKAFVKDILDEFPEPKPAYTTVSTMVRILEKKGMVGYTAYGKNHQYYPL	-1.18
HMNGLNISYRMDGENVVETIVFPDATMIRTIAPNGVMTIKTIEDGSVSTSELKADYKLYKKIYESQY	-0.401
HMYNNGYVNSDRVNFRKGASTNSDIYKVLDKNTSVTILDYEGDWSKVKINDTVGYVYTKYITAG	-0.0882
HMRVPQWLVDKIAAAGIDTHRSGPALKALAAKAGTPEQLDQAIARAKALRRRTGSTQSLNVGLLGSILEGT	-0.0808
HMHTGEVVNGKVIDVKEDQIILNVGFKSDGIITRSEYSNDNSLDLRTVVNVGDDMEAKVLKINDGEGQVLL	-0.343
HMHGLNQNKPIPIADIVNSVNNYLTSLGKKTITDNSVLSNLKKAAKYLNTAYNLVLRPDSLNMTVTLL	0.22
HMGPLTMGQRIVRLRTQAGLSQDALAEQLGVSRQSVSKWETDGSVPDLDRLVKLSKVFGVTLDELVKG	≥ 0.43
HMVIDETVLIDLFERLAEDDRPQRVAFRYILALVLLRKRTLQLIGREDEDDGEIWLLRFKGTDGEPIRV	-2.56
HMNTLTKEDIQKAIDVIPIDFKSVVILNLVEGFSYKETAEILEIPIGTVMSRLHRGRKILQKLLWEYSSSK	-0.557
HMGKRGKEMQTAVLAILRASDRPYSAYELLESLKDIYPKIAPPTVYRALAALTQRGQIRRLESLNAFI	0.22
HMSNGFFELKTSQQDELIDLIDSHTNFVRTKIEGELITAFLKLPMDAEEFNKLLFTNGIILSHLVKRK	-1.07
HMTALSAREHEVLQLITRGYTADEIAAMLQISRHTALTYVRRIYSKLKVNSKAEAIFEVRQR	-0.215
HMSALTELPVKTVNGKKYHYYVVKQHETVYALSKRFGITPEQLIKYNPSAEDGLQIDQELLFPATEI	-0.282
HMRMETRILTADESGIRLDAFLASRLAVSRSLAASLIDDGNVTLNGTVPKKKTAVNVGDILEVAMP	0.22
HMYEGNEFSSTGMFREDILAITAVHPMREDAVTELLARSNESEETLEMMIDEELLRRVAYGNHNYYMRRFR	-0.388
HMKIVQDIAFSDFLNEVEKDNVLDVNIKGDLINGNLADGRKFKTYTPYDPNLIEKLSNKNVTINVEPYN	0.00986
HMAVPAALVQAWLELSRRMVAGTQDVGERFAEEARKMHYGETEDRGIRGQATLTEVRDLLDEGIEVLPLLL	-0.725
HMSSEITYDKFIEMVEEGNVKEVTLQSDTLTIKPKHQDSAFSEKEYYTRQMESADQLTERLEGTGIEFHS	-0.642
HMVKLSVGDIVQFAGGPHYVSSSAAKPASSPTAGPAKVTMIYQGAKHPYHIVHTTSASTVWGWVDADKVVK	-0.208
HMKAGAVFNEGDVLYPKIGGLKLMAAAGEGGKVVATLAKTDEMIYMGEEQSGFVKVESGSGSGWVKKILVA	0.202
HMSGSIIQQAENLERQFGDTREAILGTLSDPKMSEEILETLMERYNKQHGTNWDKNTWAEEWAKANK	-0.355
HMRSHLSANLQRLRHIAGLTQKDLALAANLPRATLASLEQGEANPRLDTLLAVASALQVGLDELIAAP	-1.1
HMDRWSLLTLTTLAGGTLRFTELKRAIGDISQRMLAQTLRTLEREGYVSRKVYATIPPKVEYRLTALGQSL	≥ 0.43
HMASRSQTEIMHLLSSGLPKHELVTALQSLLGISKPTAYKYLSQDVSIAYDHMVKILEYPPFQRVLYQ	-0.799

Sequence	soluble fraction (log2)
HMKTVKPSQIPYSEFLKLVETDKINDVSMVGRNIIGHLDDGSKFKTYTPPNDPTLIEKLSSHNIVINAAPE	0.134
HMTLKVQLSEISKMVSLSYIAKKYFNKSQSWLSQRINGNTIHNKPAKFTSEELATLQFALKDIGNILNSTV	-0.658
HMKKVRIPDDPEEAYRKALKTAMNIVGYKDNTEFTLREKLSERGYSGETVDAVAEFMKSKGYV	0.00228
HMEAKSSTKALLDVVLGRNGVSTANVAKSLNISVQNASTRLKKLSSEGVIMRSEVSSPTGGIEFIYS	0.22
HMTRETTQAWWEARQTLPSGEQRSAASLSQEASHVRRFYRWAMQQGLTDRNPADWLPDVRQK	-0.062
HMTGDIGAEAAKAAALAHAGVTESQTAKMKVDRDWDDGRLEYDVEFDVGRTEYEYTIDGVTGAVLEYEQDI	0.0208
HMINLVPFELKFITAQVLDDIIKKIGINADTIILDINPKKIWVYAGEQELSDIQNIVKNVDVEDNI	-2.17
HMKNINTNIGKNLKRIRKLRGLTIDALATSSGVSKSMISEIERGIRNPSITIIWSLANALKTPLNYFLKE	≥ 0.43
HMLTYPEHVRLRMIELRKTRSLSQSEFGTYLGLSYQTISSLELGRHEWSLAHIQTALLRFELPPNYF	-1.82
HMKAILHQESRSGFANATVIGGLDKFLDTNWNQLSKYIKKIETPYSDRSLEDRKIWISTILGILSTEI	0.136
HMVPEEEATKISVQNVGASDYNFTVKGVQANDPTLTLVRGKTYEFDVTSLGHPFWIKTQKVTGSSSQY	-0.139
HMDMQNIQKGLSAIEPGRTFSREEYYAAIQNGSEMLLKEDALAYSLRKSLSDGDIVRVSWNQYAIP	-0.909
HMENNIILNYVKDNLNITEKDAKDLIELLGSDYYHIKNETNKIAAFLDGQPYSFEKIKNLISIDKEY	-0.644
HMDKVEQLMQNPVIQEKMSEGDRELLRNASLVVLGRLEDDGSIIQRFVELFGEEAYERLKSELM	-0.865
HMTPQVTVPDVTGQSFASAKQVLESLGLTVKQQGSTGENDKVIGQNPTSGNADKGATITLTTQDS	-0.154
HMTASSYMGMQLGRLEELLKKEVLSLSEKTELKDLISDFDKIPEVVSPKIIGRYLQLKNQHFAKINA	-0.2
HMATLAVPNLMRLSQGEAMALIRLSGLSIGNVSIDSSMGSPRVIRQEPQASGGMLVLTQGDQVHLWLEGP	-2.08
HMLDQGTQSRYQIMDGVRALITGDWSSHGAGLVRELSQEVARTSGLTATSERTFFVPFSALS	-0.111
HMATAPQIRAIYALGSKLGINQNSREDNLHQLVYSITGKESIKGLTNYEAARVQSELANMERK	0.396
HMQMEDTDALLQVAKEVVAENQDTVEAYLGGREKAFASLIGAAMKKTRGKANPKVIRQLILDLIQ	-0.432
HMEITGKYKAKEDIKLKVIPLISSLDLQDIKQNTELEVKDTMNNWAYVTVQEKQGWVVLEKIEKVE	-1.07
HMLTAPMPGIVTEILVKEGQRVRSGQPLMILEAMKMEHQVTAPKSGQIEKIYFSEGEKVDMGSDLLSIS	-0.0146
HMDSQSVFADLVKSLSQKIASIPVWFEYTKNEQYDLISSYVSAKLKDLGVEFSQEEKEKFITMFMNS	-0.34
HMHDLDALTGLSGEARSKVYEEGSVFVAGEMWSAKSDAVIPAGSSIRVVRREGFILVVEKDS	-1.97
HMAVNVNGIHLSSQQHEALVSIWRTGRMPEPHAGQKPWLWIQALRRRGLVSGNALRLTDKGRHIVQLLQ	0.226
